Source: patent US20040138431A1 (Genentech, published 2004)

Target: trkB with a gD tag expressed on CHO cells
Test: cell-based or functional assay

B1: recombinant human NT-4/5 (rhNT-4/5), correctly folded, intact, purified from E. coli (ligand)
chain: GVSETAPASRRGELAVCDAVSGWVTDRRTAVDLRGREVEVLGEVPAAGGSPLRQYFFETRCKADNAEEGGPGAGGGGCRGVDRRHWVSECKAKQSYVRALTAHAQGRVGWRWIRIDTACVCTLLSRTGRA
- EC50, kinase receptor activation (KIRA) assay: 0.0126 µg/mL
